# Measurements from publication PMC5552852, “Structural basis for Ccd1 auto-inhibition in the Wnt pathway through homomerization of the DIX domain” (Scientific Reports, 2017).
# B1: zebrafish Coiled-coil-DIX1 (zCcd1) DIX domain [zebrafish] / itself (parent)
# chain: AAASTKVLYYTDRSLTPFLVNIPKRLGDVTLQDFKAAVDRHGSFRYHFKSLDPEFGTVKEEVFQDDAVIPGWEGKIVAWVEED
# Variants of: B1
# Assay: gel filtration
# Conditions: with itself; read off a plot
row,Variant,screen value [mL]
1,AAASTKVLYFTDRSLTPFLVNIPKRLGDVTLQDFKAAVDRHGSFRYHFKSLDPEFGTVKEEVFQDDAVIPGWEGKIVAWVEED [chain 1 Y10F],80
